Laboratory results: US20220040297A1 (Chugai, published 2022)
Positions count from the first letter of the chain named. In names and notes the source's numbering stands. One block for each binder: values may come before it.

Target: T1, CD3ε homodimer protein (human, UniProt P07766 23-126, limits assumed, sulfo-tag or biotin label in some ECL assays)
T1 construct: also called human CD3ε homodimer protein; CD3 (CD3ε)
Experiment: SPR, CD3ε homodimer on chip;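 note: biacore SPR with antibody variants flowed as analyte over amine-coupled CD3ε homodimer on a CM chip, bound amount of each single-residue H chain variant over that of parent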
Description: An appropriate amount of CD3ε homodimer protein was immobilized onto Sensor chip CM4 (GE Healthcare Japan Corp.) by the amine coupling method. Then, the antibody having an appropriate concentration was injected thereto as an analyte and allowed to interact with the CD3ε homodimer protein on the sensor chip. Then, the sensor chip was regenerated by the injection of 10 mmol/L glycine-HCl (pH 1.5). The assay was conducted at 25° C., and HBS-EP+ (GE Healthcare Japan Corp.) was used as a running buffer. […] Each parameter was calculated using Biacore T200 Evaluation Software (GE Healthcare Japan Corp.).
Specifically, when the amount of the antibody comprising CE115HA000 bound was defined as X and the amount of the H chain one-amino acid altered form bound was defined as Y, a value of Z (ratio of amounts bound)=Y/X was used.

T1 sequence (P07766 23-126 limits assumed): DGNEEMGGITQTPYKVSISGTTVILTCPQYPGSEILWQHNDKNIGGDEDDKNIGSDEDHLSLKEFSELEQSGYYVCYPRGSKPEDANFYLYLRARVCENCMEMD

ratio of amounts bound vs CE115HA000: 0.61
B1: CE115HA000 A56G (antibody, name in Kabat numbering, V domains shown)
VH: QVQLVESGGGVVQPGRSLRLSCAASGFTFSNAWMHWVRQAPGKGLEWVAQIKAKSNNYGTYYAESVKGRFTISRDDSKNSLYLQMNSLKTEDTAVYYCRYVHYGAYYGVDAWGQGTTVTVSS
VL: DIVMTQSPLSLPVTPGEPASISCRSSQSLVHSNRNTYLHWYQQKPGQAPRLLIYKVSNRFSGVPDRFSGSGSGTDFTLKISRVEAEDVGVYYCGQGTQVPYTFGQGTKLEIK

ratio of amounts bound vs CE115HA000: 1.03
B5: CE115HA000 G98P (antibody, name in Kabat numbering, V domains shown)
VH: B1 VH with G59A, G104P
VL: B1 VL

ratio of amounts bound vs CE115HA000: 1.1
B6: CE115HA000 G98A (antibody, name in Kabat numbering, V domains shown)
VH: B1 VH with G59A, G104A
VL: B1 VL

ratio of amounts bound vs CE115HA000: 2.25
B9: CE115HA000 D101Q (antibody, name in Kabat numbering, V domains shown)
VH: B1 VH with G59A, D110Q
VL: B1 VL

ratio of amounts bound vs CE115HA000: 0.82
B10: CE115HA000 A99S (antibody, name in Kabat numbering, V domains shown)
VH: B1 VH with G59A, A105S
VL: B1 VL

ratio of amounts bound vs CE115HA000: 0.43
B12: CE115HA000 D73G (antibody, name in Kabat numbering, V domains shown)
VH: B1 VH with G59A, D76G
VL: B1 VL

ratio of amounts bound vs CE115HA000: 1.58
B13: CE115HA000 G98F (antibody, name in Kabat numbering, V domains shown)
VH: B1 VH with G59A, G104F
VL: B1 VL

ratio of amounts bound vs CE115HA000: 1.35
B14: CE115HA000 A56K (antibody, name in Kabat numbering, V domains shown)
VH: B1 VH with G59K
VL: B1 VL

ratio of amounts bound vs CE115HA000: 1.43
B15: CE115HA000 A99F (antibody, name in Kabat numbering, V domains shown)
VH: B1 VH with G59A, A105F
VL: B1 VL

ratio of amounts bound vs CE115HA000: 1.05
B16: CE115HA000 D72E (antibody, name in Kabat numbering, V domains shown)
VH: B1 VH with G59A, D75E
VL: B1 VL

ratio of amounts bound vs CE115HA000: 0.76
B17: CE115HA000 A56Q (antibody, name in Kabat numbering, V domains shown)
VH: B1 VH with G59Q
VL: B1 VL

ratio of amounts bound vs CE115HA000: 1.09
B18: CE115HA000 E61A (antibody, name in Kabat numbering, V domains shown)
VH: B1 VH with G59A, E64A
VL: B1 VL

ratio of amounts bound vs CE115HA000: 2.83
B20: CE115HA000 G98H (antibody, name in Kabat numbering, V domains shown)
VH: B1 VH with G59A, G104H
VL: B1 VL

ratio of amounts bound vs CE115HA000: 1.48
B23: CE115HA000 A99H (antibody, name in Kabat numbering, V domains shown)
VH: B1 VH with G59A, A105H
VL: B1 VL

ratio of amounts bound vs CE115HA000: 0.99
B25: CE115HA000 A60D (antibody, name in Kabat numbering, V domains shown)
VH: B1 VH with G59A, A63D
VL: B1 VL

ratio of amounts bound vs CE115HA000: 0.66
B26: CE115HA000 A56Y (antibody, name in Kabat numbering, V domains shown)
VH: B1 VH with G59Y
VL: B1 VL

ratio of amounts bound vs CE115HA000: 0.63
B28: CE115HA000 D73T (antibody, name in Kabat numbering, V domains shown)
VH: B1 VH with G59A, D76T
VL: B1 VL

ratio of amounts bound vs CE115HA000: 0.79
B29: CE115HA000 D101T (antibody, name in Kabat numbering, V domains shown)
VH: B1 VH with G59A, D110T
VL: B1 VL

ratio of amounts bound vs CE115HA000: 1.07
B31: CE115HA000 E61P (antibody, name in Kabat numbering, V domains shown)
VH: B1 VH with G59A, E64P
VL: B1 VL

ratio of amounts bound vs CE115HA000: 1.23
B32: CE115HA000 G98Q (antibody, name in Kabat numbering, V domains shown)
VH: B1 VH with G59A, G104Q
VL: B1 VL

ratio of amounts bound vs CE115HA000: 0.84
B34: CE115HA000 A99T (antibody, name in Kabat numbering, V domains shown)
VH: B1 VH with G59A, A105T
VL: B1 VL

ratio of amounts bound vs CE115HA000: 1.38
B37: CE115HA000 D101G (antibody, name in Kabat numbering, V domains shown)
VH: B1 VH with G59A, D110G
VL: B1 VL

ratio of amounts bound vs CE115HA000: 1.43
B42: CE115HA000 A102V (antibody, name in Kabat numbering, V domains shown)
VH: B1 VH with G59A, A111V
VL: B1 VL

ratio of amounts bound vs CE115HA000: 1.18
B43: CE115HA000 D101I (antibody, name in Kabat numbering, V domains shown)
VH: B1 VH with G59A, D110I
VL: B1 VL

ratio of amounts bound vs CE115HA000: 1.33
B45: CE115HA000 D101V (antibody, name in Kabat numbering, V domains shown)
VH: B1 VH with G59A, D110V
VL: B1 VL

Second part, the binder before the results:

B2: CE115HA000 A56N (antibody, name in Kabat numbering, V domains shown)
VH: B1 VH with G59N
VL: B1 VL
ratio of amounts bound vs CE115HA000: 0.87

B3: CE115HA000 D72V (antibody, name in Kabat numbering, V domains shown)
VH: B1 VH with G59A, D75V
VL: B1 VL
ratio of amounts bound vs CE115HA000: 1.43

B4: CE115HA000 D101Y (antibody, name in Kabat numbering, V domains shown)
VH: B1 VH with G59A, D110Y
VL: B1 VL
ratio of amounts bound vs CE115HA000: 6.49

B7: CE115HA000 D73E (antibody, name in Kabat numbering, V domains shown)
VH: B1 VH with G59A, D76E
VL: B1 VL
ratio of amounts bound vs CE115HA000: 0.73

B8: CE115HA000 A99I (antibody, name in Kabat numbering, V domains shown)
VH: B1 VH with G59A, A105I
VL: B1 VL
ratio of amounts bound vs CE115HA000: 1.13

B11: CE115HA000 D101P (antibody, name in Kabat numbering, V domains shown)
VH: B1 VH with G59A, D110P
VL: B1 VL
ratio of amounts bound vs CE115HA000: 0.2

B19: CE115HA000 D101A (antibody, name in Kabat numbering, V domains shown)
VH: B1 VH with G59A, D110A
VL: B1 VL
ratio of amounts bound vs CE115HA000: 1.26

B21: CE115HA000 G98D (antibody, name in Kabat numbering, V domains shown)
VH: B1 VH with G59A, G104D
VL: B1 VL
ratio of amounts bound vs CE115HA000: 0.26

B22: CE115HA000 D101M (antibody, name in Kabat numbering, V domains shown)
VH: B1 VH with G59A, D110M
VL: B1 VL
ratio of amounts bound vs CE115HA000: 1.2

B24: CE115HA000 D73R (antibody, name in Kabat numbering, V domains shown)
VH: B1 VH with G59A, D76R
VL: B1 VL
ratio of amounts bound vs CE115HA000: 1.04

B27: CE115HA000 A102Y (antibody, name in Kabat numbering, V domains shown)
VH: B1 VH with G59A, A111Y
VL: B1 VL
ratio of amounts bound vs CE115HA000: 0.91

B30: CE115HA000 G65D (antibody, name in Kabat numbering, V domains shown)
VH: B1 VH with G59A, G68D
VL: B1 VL
ratio of amounts bound vs CE115HA000: 0.76

B33: CE115HA000 G98T (antibody, name in Kabat numbering, V domains shown)
VH: B1 VH with G59A, G104T
VL: B1 VL
ratio of amounts bound vs CE115HA000: 1

B35: CE115HA000 G65E (antibody, name in Kabat numbering, V domains shown)
VH: B1 VH with G59A, G68E
VL: B1 VL
ratio of amounts bound vs CE115HA000: 0.78

B36: CE115HA000 E61D (antibody, name in Kabat numbering, V domains shown)
VH: B1 VH with G59A, E64D
VL: B1 VL
ratio of amounts bound vs CE115HA000: 0.91

B38: CE115HA000 G98Y (antibody, name in Kabat numbering, V domains shown)
VH: B1 VH with G59A, G104Y
VL: B1 VL
ratio of amounts bound vs CE115HA000: 2.22

B39: CE115HA000 A99D (antibody, name in Kabat numbering, V domains shown)
VH: B1 VH with G59A, A105D
VL: B1 VL
ratio of amounts bound vs CE115HA000: 0.28

B40: CE115HA000 A56L (antibody, name in Kabat numbering, V domains shown)
VH: B1 VH with G59L
VL: B1 VL
ratio of amounts bound vs CE115HA000: 0.8

B41: CE115HA000 E61Q (antibody, name in Kabat numbering, V domains shown)
VH: B1 VH with G59A, E64Q
VL: B1 VL
ratio of amounts bound vs CE115HA000: 1.07

B44: CE115HA000 A60E (antibody, name in Kabat numbering, V domains shown)
VH: B1 VH with G59A, A63E
VL: B1 VL
ratio of amounts bound vs CE115HA000: 0.94
